Measurements reported in publication doi:10.1101/2022.07.28.501929.
Where two headings read alike, the source gives them in different places.

Tests used:
[1] = biological target: T1, Human alpha-thrombin (Factor IIa) (Homo sapiens, UniProt P00734;P00734 328-363;364-622); test: bead fluorescence binding
[2] = biological target: T1, Human alpha-thrombin (Factor IIa); test: bead fluorescence binding; remark: listed apart in the source

| Binder | Kd [1] [nM] | binding result [1] | other results |
| --- | --- | --- | --- |
| SAM16-16 (SAM16 with gap = 0) (mixed) DNA 1: ACGTGAGAAGTCCGTGGTAGGGCAGGTTGGGGTGACTTACGACGA DNA 2: TCTCACGTTCGTCGTA | 2010 ± 87.3 | – | – |
| SAM16 with gap = 3 (mixed) DNA 1: ACGTGAGAAGTCCGTGGTAGGGCAGGTTGGGGTGACTTACGACGA DNA 2: TCTCACGTTTTTCGTCGTA | 11.6 ± 2.87 | – | – |
| SAM20-20 (mixed) DNA 1: ACGTGAGAGCAGTCCGTGGTAGGGCAGGTTGGGGTGACTCATACGACGA DNA 2: GCTCTCACGTTCGTCGTATG | – | binds | – |
| SAM22-22 (mixed) DNA 1: ACGTGAGAGCAAGTCCGTGGTAGGGCAGGTTGGGGTGACTACATACGACGA DNA 2: TGCTCTCACGTTCGTCGTATGT | – | binds | – |
| SAM16-16 with EcoRI site, EcoRI digested (mixed) DNA 1: AATTCCGAAGTCCGTGGTAGGGCAGGTTGGGGTGACTATCGACGG DNA 2: TCGG DNA 3: AATTCCGTCGAT | – | – | Kd [2]: 56.3 ± 5.48 nM |
| SAM24-24 (mixed) DNA 1: ACGTGAGAGCAGAGTCCGTGGTAGGGCAGGTTGGGGTGACTGACATACGACGA DNA 2: CTGCTCTCACGTTCGTCGTATGTC | 30.9 ± 5.67 | – | – |
